# Laboratory results published in the supplement of paper PMC10567573.
# B1: PPFIA4 (parent)
# chain: YAGNLHESGVHGALLALDENFDHN
# Variants of: B1
# Experiment: protein stability index of a GFP-peptide fusion (GPS, HEK-293T) (PSI 1-6); higher = more stable
# Conditions: c terminus: a fixed tail appended
# 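Further: lentivirally expressed fusions sorted by FACS into six bins by GFP to DsRed ratio, PSI derived from sequencing read proportions per bin multiplied by bin number.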
row,Variant,protein stability index
1,YAGNLHESGVHGALLAWDENFDHN,2.4
2,YAGNLHESGVHGALLAYDENFDHN,1.76
3,YAGNLHESGVHGALLAQDENFDHN,3.37
4,YAGNLHESGVHGALLAKDENFDHN,3.24
5,YAGNLHESGVHGALLAVDENFDHN,2.47
6,YAGNLHESGVHGALLAPDENFDHN,3.35
7,YAGNLHESGVHGALLAMDENFDHN,2.96
8,YAGNLHESGVHGALLAEDENFDHN,4.52
9,YAGNLHESGVHGALLATDENFDHN,3.04
10,YAGNLHESGVHGALLAFDENFDHN,2.16
11,YAGNLHESGVHGALLAGDENFDHN,3.4
12,YAGNLHESGVHGALLARDENFDHN,3.31
13,YAGNLHESGVHGALLANDENFDHN,3.86
14,YAGNLHESGVHGALLADDENFDHN,4.18
15,YAGNLHESGVHGALLAIDENFDHN,2.02
16,YAGNLHESGVHGALLAHDENFDHN,4.06
17,YAGNLHESGVHGALLACDENFDHN,3.21
18,YAGNLHESGVHGALLAADENFDHN,3.43
19,YAGNLHESGVHGWLLALDENFDHN,3.04
20,YAGNLHESGVHGTLLALDENFDHN,2.86
21,YAGNLHESGVHGQLLALDENFDHN,3.8
22,YAGNLHESGVHGYLLALDENFDHN,3.02
23,YAGNLHESGVHGVLLALDENFDHN,2.07
24,YAGNLHESGVHGLLLALDENFDHN,2.06

row,Variant,protein stability index
1,YAGNLHESGVHGILLALDENFDHN,1.86
2,YAGNLHESGVHGSLLALDENFDHN,2.33
3,YAGNLHESGVHGPLLALDENFDHN,2.96
4,YAGNLHESGVHGFLLALDENFDHN,1.73
5,YAGNLHESGVHGKLLALDENFDHN,2.96
6,YAGNLHESGVHGRLLALDENFDHN,2.41
7,YAGNLHESGVHGNLLALDENFDHN,2.66
8,YAGNLHESGVHGDLLALDENFDHN,4.32
9,YAGNLHESGVHGCLLALDENFDHN,2.21
10,YAGNLHESGVHGMLLALDENFDHN,1.49
11,YAGNLHESGVHGELLALDENFDHN,4.13
12,YAGNLHESGVHGHLLALDENFDHN,2.67
13,YAGNLHESGVHGGLLALDENFDHN,2.65
14,YAGNLHESGVHGALLPLDENFDHN,3.43
15,YAGNLHESGVHGALLILDENFDHN,1.97
16,YAGNLHESGVHGALLWLDENFDHN,3.58
17,YAGNLHESGVHGALLVLDENFDHN,2.31
18,YAGNLHESGVHGALLGLDENFDHN,1.77
19,YAGNLHESGVHGALLNLDENFDHN,3.23
20,YAGNLHESGVHGALLMLDENFDHN,2.43
21,YAGNLHESGVHGALLHLDENFDHN,3.25
22,YAGNLHESGVHGALLYLDENFDHN,2.06
23,YAGNLHESGVHGALLDLDENFDHN,3.85
24,YAGNLHESGVHGALLKLDENFDHN,2.73

row,Variant,protein stability index
1,YAGNLHESGVHGALLQLDENFDHN,3.31
2,YAGNLHESGVHGALLLLDENFDHN,2.36
3,YAGNLHESGVHGALLFLDENFDHN,3.06
4,YAGNLHESGVHGALLCLDENFDHN,2.39
5,YAGNLHESGVHGALLSLDENFDHN,3.2
6,YAGNLHESGVHGALLRLDENFDHN,2.99
7,YAGNLHESGVHGALLELDENFDHN,4.12
8,YAGNLHESGVHGALLTLDENFDHN,3.34
9,YAGNLHESGVHGALLALDENHDHN,3
10,YAGNLHESGVHGALLALDENDDHN,3.92
11,YAGNLHESGVHGALLALDENWDHN,2.69
12,YAGNLHESGVHGALLALDENMDHN,2.85
13,YAGNLHESGVHGALLALDENGDHN,3.58
14,YAGNLHESGVHGALLALDENIDHN,2.69
15,YAGNLHESGVHGALLALDENRDHN,2.53
16,YAGNLHESGVHGALLALDENCDHN,3.23
17,YAGNLHESGVHGALLALDENVDHN,2.63
18,YAGNLHESGVHGALLALDENNDHN,3.85
19,YAGNLHESGVHGALLALDENQDHN,3.08
20,YAGNLHESGVHGALLALDENLDHN,3.51
21,YAGNLHESGVHGALLALDENEDHN,3.93
22,YAGNLHESGVHGALLALDENSDHN,3.56
23,YAGNLHESGVHGALLALDENKDHN,2.89
24,YAGNLHESGVHGALLALDENTDHN,3.37

row,Variant,protein stability index
1,YAGNLHESGVHGALLALDENYDHN,2.6
2,YAGNLHESGVHGALLALDENADHN,2.9
3,YAGNLHESGVHGALLALDENPDHN,3.45
4,YAGNLHESGVHGALLALRENFDHN,2.55
5,YAGNLHESGVHGALLALQENFDHN,2.65
6,YAGNLHESGVHGALLALNENFDHN,2.74
7,YAGNLHESGVHGALLALWENFDHN,2
8,YAGNLHESGVHGALLALIENFDHN,2.2
9,YAGNLHESGVHGALLALSENFDHN,1.87
10,YAGNLHESGVHGALLALAENFDHN,1.66
11,YAGNLHESGVHGALLALHENFDHN,2.11
12,YAGNLHESGVHGALLALPENFDHN,2.16
13,YAGNLHESGVHGALLALTENFDHN,2.13
14,YAGNLHESGVHGALLALYENFDHN,2.14
15,YAGNLHESGVHGALLALVENFDHN,2.07
16,YAGNLHESGVHGALLALGENFDHN,1.95
17,YAGNLHESGVHGALLALKENFDHN,2.54
18,YAGNLHESGVHGALLALCENFDHN,1.34
19,YAGNLHESGVHGALLALFENFDHN,1.69
20,YAGNLHESGVHGALLALMENFDHN,2.38
21,YAGNLHESGVHGALLALLENFDHN,1.76
22,YAGNLHESGVHGALLALEENFDHN,2.82
